From publication PMC10397247
Where two headings read alike, the source gives them in different places. Each block holds one binder with its values, some of them ahead of it.

Experiments:
4H4033-AA = target: T1, 4H4033-AA; assay: two-hybrid library CCmax;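 note: natural log of median RNA to DNA barcode read ratio; higher means stronger binding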
T1 chain: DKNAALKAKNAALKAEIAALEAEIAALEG

4H662-AA = target: T2, 4H662-AA; assay: two-hybrid library CCmax; details: mean of both orientations;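 note: natural log of median RNA to DNA barcode read ratio; higher means stronger binding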
T2 chain: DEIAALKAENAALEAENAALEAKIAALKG

4H481-AA = target: T3, 4H481-AA; assay: two-hybrid library CCmax; details: mean of both orientations;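 note: natural log of median RNA to DNA barcode read ratio; higher means stronger binding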
T3 chain: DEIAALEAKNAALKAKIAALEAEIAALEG

4H55-AA = target: T4, 4H55-AA; assay: two-hybrid library CCmax; details: mean of both orientations;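 note: natural log of median RNA to DNA barcode read ratio; higher means stronger binding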
T4 chain: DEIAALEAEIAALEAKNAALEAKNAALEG

4H908-bH = target: T5, 4H908-bH; assay: two-hybrid library CCNG1;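 note: natural log of median RNA to DNA barcode read ratio; higher means stronger binding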
T5 chain: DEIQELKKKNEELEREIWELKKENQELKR

4H717-bH = target: T6, 4H717-bH; assay: two-hybrid library CCNG1;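 note: natural log of median RNA to DNA barcode read ratio; higher means stronger binding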
T6 chain: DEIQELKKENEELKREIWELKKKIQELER

4H883-bH = target: T7, 4H883-bH; assay: two-hybrid library CCNG1
T7 chain: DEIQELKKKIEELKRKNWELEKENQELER

4H72-bH = target: T8, 4H72-bH; assay: two-hybrid library CCNG1
T8 chain: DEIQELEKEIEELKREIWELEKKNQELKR

4H454-bH = target: T9, 4H454-bH; assay: two-hybrid library CCNG1
T9 chain: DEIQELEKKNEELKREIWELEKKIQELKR

4H967-bH = target: T10, 4H967-bH; assay: two-hybrid library CCNG1
T10 chain: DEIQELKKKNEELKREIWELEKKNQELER

4H797-bH = target: T11, 4H797-bH; assay: two-hybrid library CCNG1
T11 chain: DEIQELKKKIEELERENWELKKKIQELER

4H754-bH = target: T12, 4H754-bH; assay: two-hybrid library CCNG1
T12 chain: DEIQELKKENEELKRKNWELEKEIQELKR

4H918-bH = target: T13, 4H918-bH; assay: two-hybrid library CCNG1
T13 chain: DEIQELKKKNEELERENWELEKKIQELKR

4H607-bH = target: T14, 4H607-bH; assay: two-hybrid library CCNG1
T14 chain: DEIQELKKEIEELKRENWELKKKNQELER

4H568-bH = target: T15, 4H568-bH; assay: two-hybrid library CCNG1
T15 chain: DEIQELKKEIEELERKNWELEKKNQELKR

4H687-bH = target: T16, 4H687-bH; assay: two-hybrid library CCNG1
T16 chain: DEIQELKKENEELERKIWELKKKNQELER

4H953-bH = target: T17, 4H953-bH; assay: two-hybrid library CCNG1
T17 chain: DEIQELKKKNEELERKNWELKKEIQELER

4H3446-AA = target: T18, 4H3446-AA; assay: two-hybrid library CCmax; details: mean of both orientations
T18 chain: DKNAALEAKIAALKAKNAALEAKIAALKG

4H675-AA = target: T19, 4H675-AA; assay: two-hybrid library CCmax
T19 chain: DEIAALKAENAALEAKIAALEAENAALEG

4H3121-AA = target: T20, 4H3121-AA; assay: two-hybrid library CCmax
T20 chain: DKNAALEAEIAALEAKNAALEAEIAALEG

4H391-AA = target: T21, 4H391-AA; assay: two-hybrid library CCmax; details: mean of both orientations
T21 chain: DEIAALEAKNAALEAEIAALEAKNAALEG

4H3666-AA = target: T22, 4H3666-AA; assay: two-hybrid library CCmax; details: mean of both orientations
T22 chain: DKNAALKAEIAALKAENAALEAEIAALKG

4H3417-AA = target: T23, 4H3417-AA; assay: two-hybrid library CCmax; details: mean of both orientations
T23 chain: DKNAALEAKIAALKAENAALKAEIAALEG

4H3939-AA = target: T24, 4H3939-AA; assay: two-hybrid library CCmax; details: mean of both orientations
T24 chain: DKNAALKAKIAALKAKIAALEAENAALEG

4H971-AA = target: T25, 4H971-AA; assay: two-hybrid library CCmax; details: mean of both orientations
T25 chain: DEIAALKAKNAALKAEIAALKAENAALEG

4H497-AA = target: T26, 4H497-AA; assay: two-hybrid library CCmax; details: mean of both orientations
T26 chain: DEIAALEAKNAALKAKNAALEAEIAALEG

4H656-AA = target: T27, 4H656-AA; assay: two-hybrid library CCmax; details: mean of both orientations
T27 chain: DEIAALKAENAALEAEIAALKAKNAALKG

4H428-AA = target: T28, 4H428-AA; assay: two-hybrid library CCmax; details: mean of both orientations
T28 chain: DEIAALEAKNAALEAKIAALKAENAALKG

4H3591-AA = target: T29, 4H3591-AA; assay: two-hybrid library CCmax; details: mean of both orientations
T29 chain: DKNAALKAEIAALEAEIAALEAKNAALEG

4H3709-AA = target: T30, 4H3709-AA; assay: two-hybrid library CCmax; details: mean of both orientations
T30 chain: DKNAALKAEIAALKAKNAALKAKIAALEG

4H478-AA = target: T31, 4H478-AA; assay: two-hybrid library CCmax; details: mean of both orientations
T31 chain: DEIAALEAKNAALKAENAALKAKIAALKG

4H3628-AA = target: T32, 4H3628-AA; assay: two-hybrid library CCmax; details: mean of both orientations
T32 chain: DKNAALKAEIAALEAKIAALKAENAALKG

4H3920-AA = target: T33, 4H3920-AA; assay: two-hybrid library CCmax; details: mean of both orientations
T33 chain: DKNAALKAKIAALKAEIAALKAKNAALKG

4H619-bN = target: T34, 4H619-bN; assay: two-hybrid library CCNG1
T34 chain: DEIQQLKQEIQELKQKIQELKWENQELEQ

4H906-bN = target: T35, 4H906-bN; assay: two-hybrid library CCNG1
T35 chain: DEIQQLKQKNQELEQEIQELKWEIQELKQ

4H850-bN = target: T36, 4H850-bN; assay: two-hybrid library CCNG1
T36 chain: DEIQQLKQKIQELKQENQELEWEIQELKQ

4H3922-AA = target: T37, 4H3922-AA; assay: two-hybrid library CCmax
T37 chain: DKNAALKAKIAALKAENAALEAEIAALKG

4H3102-AA = target: T38, 4H3102-AA; assay: two-hybrid library CCmax
T38 chain: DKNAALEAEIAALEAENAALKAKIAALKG

4H730-bN = target: T39, 4H730-bN; assay: two-hybrid library CCNG1
T39 chain: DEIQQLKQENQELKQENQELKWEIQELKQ

4H796-bN = target: T40, 4H796-bN; assay: two-hybrid library CCNG1
T40 chain: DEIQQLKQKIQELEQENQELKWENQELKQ

4H932-bN = target: T41, 4H932-bN; assay: two-hybrid library CCNG1
T41 chain: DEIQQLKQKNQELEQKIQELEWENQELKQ

4H949-bN = target: T42, 4H949-bN; assay: two-hybrid library CCNG1
T42 chain: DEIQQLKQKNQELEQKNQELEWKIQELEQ

4H932-bH = target: T43, 4H932-bH; assay: two-hybrid library CCNG1
T43 chain: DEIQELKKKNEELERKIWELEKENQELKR

4H796-bH = target: T44, 4H796-bH; assay: two-hybrid library CCNG1
T44 chain: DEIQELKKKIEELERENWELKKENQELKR

4H949-bH = target: T45, 4H949-bH; assay: two-hybrid library CCNG1
T45 chain: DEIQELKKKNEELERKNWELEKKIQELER

4H730-bH = target: T46, 4H730-bH; assay: two-hybrid library CCNG1
T46 chain: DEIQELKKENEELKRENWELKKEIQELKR

P9 = target: T47, P9; assay: two-hybrid library CC1
T47 chain: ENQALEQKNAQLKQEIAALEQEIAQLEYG

4H_BCR = target: T48, 4H_BCR; assay: two-hybrid library CCmax; details: mean of both orientations
T48 chain: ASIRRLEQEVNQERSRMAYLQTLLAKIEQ

4H895-AA = target: T49, 4H895-AA; assay: two-hybrid library CCmax
T49 chain: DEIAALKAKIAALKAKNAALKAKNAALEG

4H_GCN4 = assay: two-hybrid library CCmax
GCN2_T = assay: two-hybrid library CCmax; details: mean of both orientations
4H_APH = target: T50, 4H_APH; assay: two-hybrid library CCmax; details: mean of both orientations
T50 chain: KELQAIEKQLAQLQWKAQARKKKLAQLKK

Chain of 4H_GCN4 (chain, as listed by the source): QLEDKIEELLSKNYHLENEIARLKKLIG

interaction score (4H4033-AA): -1.66
interaction score (4H662-AA): 1.17
interaction score (4H481-AA): -1.15
interaction score (4H55-AA): -1.39
B1: 4H4033-AA (peptide)
chain: DKNAALKAKNAALKAEIAALEAEIAALEG

interaction score (4H908-bH): -0.536
interaction score (4H717-bH): 0.664
interaction score (4H883-bH): -1.26
interaction score (4H72-bH): 0.203
interaction score (4H454-bH): 1.6
interaction score (4H967-bH): 0.69
interaction score (4H797-bH): -0.829
interaction score (4H754-bH): 0.236
interaction score (4H918-bH): -1.05
interaction score (4H607-bH): -1.61
interaction score (4H568-bH): 0.197
interaction score (4H687-bH): 1.81
interaction score (4H953-bH): 1.26
B2: 4H454-bH (peptide)
chain: DEIQELEKKNEELKREIWELEKKIQELKR

interaction score (4H3446-AA): 1.8
interaction score (4H675-AA): -2.08
interaction score (4H3121-AA): -1.24
interaction score (4H391-AA): -1.89
interaction score (4H3666-AA): -0.746
interaction score (4H3417-AA): -1.39
interaction score (4H3939-AA): -1.9
interaction score (4H971-AA): -1.39
interaction score (4H497-AA): -1.74
interaction score (4H656-AA): -1.6
interaction score (4H428-AA): -0.865
interaction score (4H3591-AA): -1.55
interaction score (4H3709-AA): -0.104
interaction score (4H478-AA): -0.966
interaction score (4H3628-AA): -1.32
interaction score (4H3920-AA): -1.06
B3: 4H3121-AA (peptide)
chain: DKNAALEAEIAALEAKNAALEAEIAALEG

interaction score (4H619-bN): 1.24
interaction score (4H906-bN): -0.494
interaction score (4H850-bN): -0.223
B4: 4H619-bN (peptide)
chain: DEIQQLKQEIQELKQKIQELKWENQELEQ

interaction score (4H4033-AA; mean of both orientations): -0.495
interaction score (4H662-AA): -1.16
interaction score (4H481-AA): 1.69
interaction score (4H55-AA): -1.32
interaction score (4H3922-AA): -0.436
B5: 4H3922-AA (peptide)
chain: DKNAALKAKIAALKAENAALEAEIAALKG

interaction score (4H3446-AA): 0.0866
interaction score (4H675-AA; mean of both orientations): -0.00286
interaction score (4H3102-AA): 1.69
interaction score (4H3121-AA; mean of both orientations): -0.0964
interaction score (4H391-AA): -0.9
interaction score (4H3666-AA): 1.73
interaction score (4H3417-AA): 2.29
interaction score (4H3939-AA): -1.39
interaction score (4H971-AA): -0.422
interaction score (4H497-AA): -1.18
interaction score (4H656-AA): 0.534
interaction score (4H428-AA): 0.651
interaction score (4H3591-AA): -1.16
interaction score (4H3709-AA): 1.43
interaction score (4H478-AA): 1.81
interaction score (4H3628-AA): -0.57
interaction score (4H3920-AA): -1.16
B6: 4H3102-AA (peptide)
chain: DKNAALEAEIAALEAENAALKAKIAALKG

interaction score (4H730-bN): 1.55
interaction score (4H796-bN): -1.29
interaction score (4H932-bN): -0.353
interaction score (4H949-bN): -0.718
B7: 4H730-bN (peptide)
chain: DEIQQLKQENQELKQENQELKWEIQELKQ

interaction score (4H932-bH): -1.05
interaction score (4H796-bH): -0.301
interaction score (4H949-bH): 0.0896
interaction score (4H730-bH): 1.5
B8: 4H730-bH (peptide)
chain: DEIQELKKENEELKRENWELKKEIQELKR

B9: P9 (peptide)
chain: ENQALEQKNAQLKQEIAALEQEIAQLEYG
interaction score (P9): -2.32

interaction score (4H796-bN): 1.8
interaction score (4H932-bN): 0.298
interaction score (4H949-bN): -0.619
B10: 4H796-bN (peptide)
chain: DEIQQLKQKIQELEQENQELKWENQELKQ

interaction score (4H932-bH): -0.89
interaction score (4H796-bH): 1.25
interaction score (4H949-bH): -0.00426
B11: 4H796-bH (peptide)
chain: DEIQELKKKIEELERENWELKKENQELKR

interaction score (4H_BCR): -2.06
interaction score (4H895-AA): -1.19
interaction score (4H_GCN4): -1.86
interaction score (GCN2_T): -1.25
interaction score (4H_APH): -1.22
B12: 4H895-AA (peptide)
chain: DEIAALKAKIAALKAKNAALKAKNAALEG
